Assay results published in patent publication US20100247515A1.
Substitutions are numbered along the chain they refer to. Values belong to the binder of their own block, whether it stands above or below them.

Legend:
DOM1h-131-202 [1] = assay: monomer/dimer self-association, AUC sedimentation velocity
DOM1h-131-202 [2] = assay: monomer/dimer self-association, AUC sedimentation equilibrium
DOM1h-131-206 = assay: as above

Kd (DOM1h-131-202 [1]): 1000 nM | Kd (DOM1h-131-202 [2]): 1300 nM
B1: DOM1h-131-202 (protein)
VH: EVQLLESGGGLVQPGGSLRLSCAASGFTFAHETMVWVRQAPGKGLEWVSHIPPDGQDPFYADSVKGRFTISRDNSKNTLYLQMNSLRAEDTAVYYCALLPKRGPWFDYWGQGTLVTVSS

Kd (DOM1h-131-206): 360000 nM
B2: DOM1h-131-206 (protein)
VH: B1 VH with Y95H
